pKd: −log10 of the molar value.
How the values were obtained:
[1] = molecular target: EGFRvIII peptide (…-biotin); test: SPR (BIAcore), biotinylated peptide on streptavidin chip, immunotoxin injected
[2] = molecular target: EGFRvIII (mutant epidermal growth factor receptor) on NR6M cells (human) (UniProt P00533); test: cell-based or functional assay

Substance: MR1(Fv)-PE38 (from UniProt P11439 278-389; P11439 406-638) (scFv)
- pKd [1]: 8.10
- IC50, cytotoxic activity, Experiment 1 [2]: 9.2 ng/mL
- IC50, cytotoxic activity, Experiment 2 [2]: 6.6 ng/mL
- IC50, cytotoxicity (inhibition of [3H]-leucine incorporation) on NR6M cells [2]: 8 ng/mL
